In article doi:10.1101/600692v2:

Legend:
[1] = substrate: O=C(O)c1ccc(O)cc1; test: purified protein; details: with glutamate and ATP
[2] = substrate: C=C(O[C@H]1C=CC=C(C(=O)O)[C@@H]1O)C(=O)O; test: purified protein; details: with glutamate and ATP; isochorismate made from chorismate by ICS1

B1: PBS3 (AvrPphB SUSCEPTIBLE3) (Arabidopsis thaliana) (protein)
chain: MKPIFDINETFEKQLKDLTSNVKSIQDNLLEEIITPNTKTEYLQRFLIDRFDKELFKKNVPIVSYEDIKPYLDRVVNGESSDVISARTITGFLLSSGTSGGAQKMMPWNNKYLDNLTFIYDLRMQVITKHVKGVEEGKGMMFLFTKQESMTPSGLPARVATSSYFKSDYFKNRPSNWYYSYTSPDEVILCPNNTESLYCHLLCGLVQRDEVVRTGSIFASVMVRAIEVLKNSWEELCSNIRSGHLSNWVTDLGCQNSVSLVLGGPRPELADTIEEICNQNSWKGIVKRLWPNTKYIETVVTGSMGQYVPMLNYYCNDLPLVSTTYGSSETTFGINLDPLCKPEDVSYTFMPNMSYFEFIPMDGGDKNDVVDLEDVKLGCTYEPVVTNFAGLYRMRVGDIVLVTGFYNNAPQFKFVRRENVVLSIDSDKTNEEDLFKAVSQAKLVLESSGLDLKDFTSYADTSTFPGHYVVYLEVDTKEGEEKETAQFELDEEALSTCCLVMEESLDNVYKRCRFKDGSIGPLEIRVVRQGTFDSLMDFFISQGASTGQYKTPRCIKSGKALQVLETCVVAKFFSI
B1 was tested, and the Km [1] was 311.54 µM, the kcat [1] was 13.46 min^-1 (printed as V/Et) and the Km [2] was 14.90 µM. The kcat [2] was 472.29 min^-1 (printed as V/Et).
